Data: patent US20220125947A1 (published 2022)

Target: γδ T cell receptor on human γδ T cells (AG000003021) (human)
Experiment: flow cytometry, DRC binding at 37°C on human γδ T cells
Experimental: Binding of antibodies to human γδ T cells or SKW cell lines expressing Vγ9/Vδ2, Vγ9/Vδ2 or Vγ5/Vδ2 was carried out by flow cytometry. Briefly, the cells were centrifuged at 300×g for 5 minutes and the pellet was resuspended in 34 ml fresh media (in RPMI+10% FBS). 50 μL of the cells were then plated (44K cells/well) into assay plates. Samples were incubated for one hour at 37° C. in tissue culture (TC) incubator followed by wash steps by adding 100 μl FACS staining buffer. Secondary detention antibodies (A647 conjugated anti-human IgG Fc specific antibody (2 μg/mL) along with AF488 anti mouse CD3, clone OKT3 at 1 ug/mL) were added at 50 μL/well to appropriate wells according to the plate map. After incubating for 60 minutes at 37° C. in the TC incubator, cells were again washed as described above. This is followed by resuspension in 20 μL/well running buffer containing 1:1000 dilution of Sytox blue dead cell stain and the plates were run on iQue Screener.
Gating and data analysis: Human anti-human Vγ9 antibody (VG9B2 mAb at 10 nM) was used to mark the gating of positive population. All cells were first gated for singlets on SCS-A vs. SCS-H dot plot, live/dead followed by CD3 positive population, and this subset of CD3 positive population was gated for Vγ9 positive binding using positive control mAb. Cells were also assessed for cell binding of control mAbs by RL1 (A647) Geomeans from the live cell population. Advanced metrics were used and normalization metrics were chosen to calculate fold over background wells containing secondary antibody alone (designated as ‘background’ within ForeCyt settings).

B1: VG9B469 (antibody, human IgG1, kappa, V domains shown)
VH: EVQLVESGGGLVKPGGSLRLSCAASGFTFSHYDMNWVRQAPGKGLEWVSSISSSSSYIFYADSVKGRFTISRDNAKNSLLLQMNSLRAEDTAVYHCARDRGVGDTSDYYSFGLDVWGQGTMVTVSS
VL: DIVMTQSPGTLSLSPGERATLSCRASQNVSSTYLAWYQQKPGQAPRLLIYGACSRATGIPDRFSGSGSGTDFTLTISRLEPEDYAVYYCQQYGSSPPYTFGRGTKLEIKR
notes: IgG1, kappa
  Max. Activity: 3000 fold over background
